# From article PMC11192315 (PLOS Pathogens, 2024)
# B1: JM-1A N59F mutant (antibody, V domains shown)
# VH: QVQLQQSGPGLVKPSGTLSLTCAVSGASISSGDWWSWVRQSPGRGLEWIGGIFHSGTTFYSPSLKSRVTMSVDQPKNQFSLHLTSVTAADTAVYYCARMRGIFDYWGQGTLVTVSS
# VL: DIQLTQSPSSLSVSVGDRVTITCRASQAISNSLAWYQQKPGKAPKLLLYAASTLESGVPSRFSGSGSGTDFTLTISSLQPEDFATYYCQHYYSTPFFGGGTKVEIK
# B2: JM-1A-G32F (antibody, V domains shown)
# VH: QVQLQQSGPGLVKPSGTLSLTCAVSGASISSFDWWSWVRQSPGRGLEWIGGIFHSGTTNYSPSLKSRVTMSVDQPKNQFSLHLTSVTAADTAVYYCARMRGIFDYWGQGTLVTVSS
# VL: DIQLTQSPSSLSVSVGDRVTITCRASQAISNSLAWYQQKPGKAPKLLLYAASTLESGVPSRFSGSGSGTDFTLTISSLQPEDFATYYCQHYYSTPFFGGGTKVEIK
# Columns and labels:
# [1] = target: RBD of SARS-CoV-2 Omicron BA.1 (SARS-CoV-2 Omicron BA.1, E484 to A484 | Q493R | Q498R | N501Y); assay: cell-based or functional assay
# [2] = target: RBD of SARS-CoV-2 Omicron BA.2 (SARS-CoV-2 Omicron BA.2, D405N | R408S | E484 to A484 | Q493R); assay: cell-based or functional assay
Binder,"IC50, neutralisation of pseudotyped lentivirus with Omicron BA.1 spike [1]","IC50, neutralisation of pseudotyped lentivirus with Omicron BA.2 spike [2]"
B1,0.018 µg/mL,0.011 µg/mL
B2,0.019 µg/mL,0.03 µg/mL
